The target of test [1] is T1, endogenous sFlt-1 in pre-eclamptic patient serum (human, UniProt P17948-2 27-687, limits assumed).
T1 construct: Native protein in patient serum; the isoform is not defined; also called circulating sFlt-1
The test can be described thus: 0.1 mL column of antibody-conjugated beads, pre-eclamptic patient serum. The procedure:
(§1) Circulating sEng and sFlt-1 proteins are elevated in pre-eclampsia patients and are postulated to be major causal factors of disease onset and progression. To test whether a cENG10/AG10B dual device is capable of removing these endogenous sEng and sFlt-1 proteins from patient serum, micro-scale 0.1 mL columns conjugated with cENG10, AG10B, or both cENG10 and AG10B MAbs were prepared. cENG10 column specifically removed>90% of endogenous sEng in pre-eclamptic serum but not endogenous sFlt-1, and the AG10B column specifically removed>90% of endogenous sFlt-1 in pre-eclamptic serum but not endogenous sEng. The cENG10/AG10B dual device column, in which a mixture of the two antibodies at 1 mg each per mL beads were conjugated simultaneously, removed>90% of both sEng and sFlt-1 proteins.

Test [2] deals with T2, endogenous sEng in pre-eclamptic patient serum (human, UniProt P17813 26-586).
T2 construct: Native protein in patient serum; the isoform or cleavage product is not defined; also called circulating sEng
T2 sequence (looked up): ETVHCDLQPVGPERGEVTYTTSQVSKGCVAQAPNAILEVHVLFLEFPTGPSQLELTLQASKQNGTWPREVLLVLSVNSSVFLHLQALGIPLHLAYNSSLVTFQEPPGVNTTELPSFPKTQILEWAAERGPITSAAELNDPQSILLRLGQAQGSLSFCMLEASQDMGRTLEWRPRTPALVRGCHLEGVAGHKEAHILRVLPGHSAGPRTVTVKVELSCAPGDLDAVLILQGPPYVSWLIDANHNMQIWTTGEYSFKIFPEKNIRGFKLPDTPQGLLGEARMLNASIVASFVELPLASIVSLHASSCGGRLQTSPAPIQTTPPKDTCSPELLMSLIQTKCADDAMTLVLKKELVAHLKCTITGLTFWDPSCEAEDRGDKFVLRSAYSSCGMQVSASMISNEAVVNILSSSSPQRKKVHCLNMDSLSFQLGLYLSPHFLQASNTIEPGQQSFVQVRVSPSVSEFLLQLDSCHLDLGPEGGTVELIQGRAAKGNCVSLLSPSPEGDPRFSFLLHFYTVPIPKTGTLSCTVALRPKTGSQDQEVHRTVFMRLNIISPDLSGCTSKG
The description is as above. On the procedure:
as §1

The target in test [3] is T3, purified recombinant human sEng (human Endoglin ectodomain residues 26 to 586 with C-terminal 6x His tag, … (human, UniProt P17813 26-586)).
T3 construct: range 26-586; also called spiked sEng; recombinant human sEng (amino acid residues 26-586)
T3 sequence: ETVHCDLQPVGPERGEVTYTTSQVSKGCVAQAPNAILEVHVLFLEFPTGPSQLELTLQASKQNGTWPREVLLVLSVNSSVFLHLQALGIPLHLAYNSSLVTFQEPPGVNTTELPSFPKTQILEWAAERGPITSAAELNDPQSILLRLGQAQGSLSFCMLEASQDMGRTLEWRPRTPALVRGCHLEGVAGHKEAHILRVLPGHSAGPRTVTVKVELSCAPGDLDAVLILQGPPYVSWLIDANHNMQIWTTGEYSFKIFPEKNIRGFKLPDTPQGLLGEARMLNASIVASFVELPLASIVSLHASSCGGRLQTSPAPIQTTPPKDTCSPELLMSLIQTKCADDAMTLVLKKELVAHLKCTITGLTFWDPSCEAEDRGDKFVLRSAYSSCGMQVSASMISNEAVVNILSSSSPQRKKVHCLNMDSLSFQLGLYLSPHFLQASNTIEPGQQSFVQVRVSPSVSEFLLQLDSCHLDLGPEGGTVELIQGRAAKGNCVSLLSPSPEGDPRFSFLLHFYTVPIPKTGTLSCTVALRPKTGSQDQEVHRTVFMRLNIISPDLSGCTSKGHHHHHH
The test can be described thus: 1 mL column, 0.2 mg MAb per mL Sepharose beads, flow rates 0.25-2.00 mL/min; input vs flow-through. The procedure: A 1-ml cENG10 device column was evaluated for depletion of spiked sEng in horse serum. For each column, 0.2 mg cENG10 or AG10B MAb was covalently conjugated to 1 mL of CNBr-activated Sepharose 4FF beads for 0.2 mg per mL beads ratio. For each test, 10 mL of serum containing 60 ng/mL of sEng, median concentration in severe pre-eclampsia patients, was applied for one cycle over the column. The first 1 ml containing pre-equilibration buffer was not collected in the flow-through (FT) fraction and the last 1 mL of input remaining in column was chased with 1 CV of PBS buffer and pooled into the FT fraction. The % sEng depletion was calculated by dividing the difference in concentration between input and FT by input concentration: […]

T1 sequence (P17948 other isoform, or with tags, fused parts or gaps limits assumed): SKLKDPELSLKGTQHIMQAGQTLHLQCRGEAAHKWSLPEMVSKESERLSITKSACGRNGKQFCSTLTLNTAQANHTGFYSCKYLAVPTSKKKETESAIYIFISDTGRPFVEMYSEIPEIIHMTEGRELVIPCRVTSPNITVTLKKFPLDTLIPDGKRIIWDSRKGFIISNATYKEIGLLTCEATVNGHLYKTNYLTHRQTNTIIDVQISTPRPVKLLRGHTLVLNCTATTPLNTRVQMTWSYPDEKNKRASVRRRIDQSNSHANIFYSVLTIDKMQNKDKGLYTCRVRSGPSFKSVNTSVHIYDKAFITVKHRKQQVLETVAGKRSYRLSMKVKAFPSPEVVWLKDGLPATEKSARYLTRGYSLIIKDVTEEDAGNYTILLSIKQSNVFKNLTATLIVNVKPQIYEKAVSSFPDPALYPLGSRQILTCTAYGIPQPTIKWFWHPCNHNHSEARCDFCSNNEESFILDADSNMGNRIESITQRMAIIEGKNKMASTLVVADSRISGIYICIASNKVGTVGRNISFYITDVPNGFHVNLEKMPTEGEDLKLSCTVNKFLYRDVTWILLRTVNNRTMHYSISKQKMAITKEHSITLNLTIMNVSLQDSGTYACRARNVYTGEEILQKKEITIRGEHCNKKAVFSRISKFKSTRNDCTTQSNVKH

B1: chimeric anti-sEng antibody cENG10 (antibody, human IgG1, kappa, N297Q, V domains shown)
VH: EVQLEQSGPEVVKPGTSVKISCKTSGYTITEHTLHWIKQNQGKSLEWIGGINFDNGGTTYRQKFKDKATLTVDKSSSTAFMELRSLTSDDSAVYFCARRAYYYGSAFDYWGQGTTLTVSS
VL: ENVLTQSPAIMSASLGEKVTMTCRASSSVNYVYWYQQKSDASPKLWIYYTSNLAPGVPARFSGSGSGNSYSLTISSMEGEDAATYYCQQFISFPYTFGGGTKLEIKR
notes: Chimeric mouse/human IgG1 kappa with N300Q; also called anti-human sEng MAb; cENG10 column
For the molecule B1, the binding result in test [1] was “no binding”.

B2: chimeric anti-sFlt-1 antibody AG10B (antibody, V domains shown)
VH: QVQLQQSGPELVKPGASVKMSCKASGYTFTDYVISWVKQRTGQGLEWIGEIYPGSGSIYYNEKFKGKATLTADTSSNTAYMQLSSLTFEDSAVIFCARGHYYGYFDYWGQGTTLTVSS
VL: DIVMTQSHKFMSTSVGDRVSITCKASQDVTITVAWYQQKPGQSPKLLIYSASYRYTGVPDRFTGSGSGTDFTFTISSVQAEDLAVYYCQQHYTTPWTFGGGTKLEIKR
notes: Chimeric mouse/human IgG1 kappa with N298Q; It served as the negative control for sEng depletion; also called AGB10; AB10B
On to B2, for which the binding result was “no binding” in test [2] and “no binding (tested: 60 ng/mL sEng in 10 mL horse serum)” in test [3].
